Test results published in publication PMC6037025.

Molecular target: CHIP (UniProt Q9UNE7)
Assay: co-IP with anti-MYC-agarose, Western blot
Conditions: reference: Flag-IRS4 wild type; sites S859

## IRS4 (from UniProt O14654) Flag-IRS4 S859A
  binding against the reference: lost
